The results in this text go back to publication PMC4191429, “Interactions of the yeast mitochondrial RNA polymerase with the +1 and +2 promoter bases dictate transcription initiation efficiency”.

Common to all, as to settings: protein: recombinant;recombinant; tags: Ni2+ column purified; copies: 1;1; label: 2-aminopurine
Data set [1] deals with T1, Rpo41 (mitochondrial RNA polymerase);Mtf1 (mitochondrial transcription initiation factor) (Saccharomyces cerevisiae;Saccharomyces …, UniProt P13433;P14908 1-1351;2-341, |). Briefly: 2-aminopurine fluorescence; no NTP; 2-AP assay buffer, salt, pH and temperature not in the material (transcription assays at 25 C).
T1 sequence (P13433 whole entry, chain 1 of 2): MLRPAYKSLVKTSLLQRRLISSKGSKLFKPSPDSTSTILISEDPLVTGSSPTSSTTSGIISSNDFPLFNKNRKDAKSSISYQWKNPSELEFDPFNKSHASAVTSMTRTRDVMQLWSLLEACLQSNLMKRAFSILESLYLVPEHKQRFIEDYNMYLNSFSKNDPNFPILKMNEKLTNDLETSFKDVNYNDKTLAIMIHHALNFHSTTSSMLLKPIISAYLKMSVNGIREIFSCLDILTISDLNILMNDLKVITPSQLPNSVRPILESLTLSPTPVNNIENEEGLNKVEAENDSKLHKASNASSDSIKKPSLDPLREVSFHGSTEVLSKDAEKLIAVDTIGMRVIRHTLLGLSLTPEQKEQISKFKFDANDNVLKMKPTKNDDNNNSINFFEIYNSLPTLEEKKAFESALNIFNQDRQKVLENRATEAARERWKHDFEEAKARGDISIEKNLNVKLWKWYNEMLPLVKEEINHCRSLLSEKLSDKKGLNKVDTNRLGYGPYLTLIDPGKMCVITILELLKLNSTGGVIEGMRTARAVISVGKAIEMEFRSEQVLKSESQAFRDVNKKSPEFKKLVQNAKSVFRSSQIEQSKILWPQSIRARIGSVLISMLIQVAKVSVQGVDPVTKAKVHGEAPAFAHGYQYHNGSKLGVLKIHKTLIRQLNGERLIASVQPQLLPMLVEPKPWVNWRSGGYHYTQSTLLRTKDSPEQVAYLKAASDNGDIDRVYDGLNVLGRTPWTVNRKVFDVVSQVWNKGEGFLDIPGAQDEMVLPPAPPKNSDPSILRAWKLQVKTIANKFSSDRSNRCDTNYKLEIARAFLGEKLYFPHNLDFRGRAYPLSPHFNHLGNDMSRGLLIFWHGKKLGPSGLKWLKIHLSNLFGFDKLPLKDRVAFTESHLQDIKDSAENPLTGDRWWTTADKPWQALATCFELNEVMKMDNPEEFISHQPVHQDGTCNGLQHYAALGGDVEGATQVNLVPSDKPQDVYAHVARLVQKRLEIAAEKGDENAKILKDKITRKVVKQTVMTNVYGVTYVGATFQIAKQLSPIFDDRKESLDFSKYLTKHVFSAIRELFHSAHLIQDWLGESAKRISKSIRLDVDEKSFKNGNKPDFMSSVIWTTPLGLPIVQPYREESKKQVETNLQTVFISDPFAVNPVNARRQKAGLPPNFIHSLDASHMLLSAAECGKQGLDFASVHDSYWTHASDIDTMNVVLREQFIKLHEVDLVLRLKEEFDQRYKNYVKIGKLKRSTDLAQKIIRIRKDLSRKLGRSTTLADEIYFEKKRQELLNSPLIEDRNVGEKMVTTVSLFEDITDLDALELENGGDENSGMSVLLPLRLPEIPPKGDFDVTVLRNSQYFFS
T1 sequence (P14908 2-341, chain 2 of 2): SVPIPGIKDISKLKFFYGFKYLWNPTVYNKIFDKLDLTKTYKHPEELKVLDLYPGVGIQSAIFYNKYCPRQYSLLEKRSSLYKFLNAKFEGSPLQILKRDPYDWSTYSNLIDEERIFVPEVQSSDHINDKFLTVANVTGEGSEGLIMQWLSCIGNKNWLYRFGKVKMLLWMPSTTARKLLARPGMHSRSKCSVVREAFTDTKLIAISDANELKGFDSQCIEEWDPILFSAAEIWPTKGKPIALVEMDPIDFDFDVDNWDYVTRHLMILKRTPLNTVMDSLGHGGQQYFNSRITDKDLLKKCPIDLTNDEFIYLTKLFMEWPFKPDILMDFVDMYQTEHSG
The target in data set [2] is T1, Rpo41 (mitochondrial RNA …). The data set can be described thus: 2-aminopurine fluorescence; ATP+GTP; 2-AP assay buffer, salt, pH and temperature not in the material (transcription assays at 25 C).
Data set [3] has the same target. The data set can be described thus: 2-aminopurine fluorescence; ATP; 2-AP assay buffer, salt, pH and temperature not in the material (transcription assays at 25 C).

B1: 21S rRNA promoter (+1+2 AG), 2-AP at -1 template (dsDNA)
DNA 1: TATTATTATTATTATATATATAAGTAGTAAAAAGTAGAATAATCT
DNA 2: AGATTATTCTACTTTTTACTACTTATATATATAATAATAATAATA
modifications: 2-aminopurine at -1 template
Take B1: the binding signal in data set [1] is ~5 fold 2-AP fluorescence increase; in data set [2], ~4 further fold 2-AP fluorescence increase over the complex without NTP.

B2: 15S rRNA promoter (+1+2 AA), 2-AP at -1 template (dsDNA)
DNA 1: ATAATTTATTTATTATTATATAAGTAATAAATAATAGTTTTATCT
DNA 2: AGATAAAACTATTATTTATTACTTATATAATAATAAATAAATTAT
modifications: 2-aminopurine at -1 template
B2: the binding signal is ~4 further fold 2-AP fluorescence increase over the complex without NTP in data set [3] and ~5 fold 2-AP fluorescence increase in data set [1].
